According to US20080274055A1 (US Dept. of Health and Human Services, published 2008):

T1: carcinoembryonic antigen (CEA) (human, UniProt P06731 35-685)
T1 sequence (looked up): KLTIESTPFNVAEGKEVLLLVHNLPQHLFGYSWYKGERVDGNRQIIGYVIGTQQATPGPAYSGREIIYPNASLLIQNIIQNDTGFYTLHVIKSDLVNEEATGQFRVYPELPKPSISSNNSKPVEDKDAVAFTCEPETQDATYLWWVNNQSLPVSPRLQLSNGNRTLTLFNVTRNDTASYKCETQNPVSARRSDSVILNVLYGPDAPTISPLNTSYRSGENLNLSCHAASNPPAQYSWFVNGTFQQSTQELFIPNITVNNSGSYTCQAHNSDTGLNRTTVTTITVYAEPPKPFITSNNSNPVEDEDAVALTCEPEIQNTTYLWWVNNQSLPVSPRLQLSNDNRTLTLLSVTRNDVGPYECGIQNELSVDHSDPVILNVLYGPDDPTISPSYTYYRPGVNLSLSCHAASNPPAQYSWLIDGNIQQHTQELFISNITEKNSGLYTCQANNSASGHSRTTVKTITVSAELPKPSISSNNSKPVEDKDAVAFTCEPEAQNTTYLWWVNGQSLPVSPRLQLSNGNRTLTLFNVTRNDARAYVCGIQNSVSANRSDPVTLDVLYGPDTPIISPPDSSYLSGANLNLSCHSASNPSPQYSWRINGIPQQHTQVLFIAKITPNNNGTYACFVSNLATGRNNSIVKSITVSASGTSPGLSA


Legend:
[1] = target: T1, carcinoembryonic antigen (CEA); test: competition RIA against 125I-mCOL-1; reference of the fold not named
Procedure: (§1) Competition RIA: The relative antigen-binding affinity of HuCOL-1, HuCOL-1AbrCDR and HuCOL-1AbrCDR antibodies with framework-substitutions was determined using a competition RIA as described previously (De Pascalis et al., J Immunol., 169:3076-3084, 2002). Twenty-five μl of serial dilutions of the antibodies to be tested, as well as mCOL-1, chimeric COL-1, and HuCOL-1 (positive controls) and HuIgG (negative control), prepared in 1% BSA in PBS, were added to microtiter plates containing 10 ng of […] saturated with 5% BSA in PBS. ¹²⁵I-labeled mCOL-1 (100,000 cpm in 25 μl) was then added to each well. After an overnight incubation at 4° C., the plates were washed and the bound radioactivity was counted in a γ-scintillation counter.
(§2) Competition RIA experiments were performed to determine the relative CEA-binding affinity of chimeric COL-1, HuCOL-1, HuCOL-1AbrCDR, and the different HuCOL-1AbrCDR-derived antibodies. Serial dilutions of unlabeled antibodies were used to compete with the binding of ¹²⁵I-mCOL-1 (FIGS. 4A, 4B and 4C) to CEA.

[2] = target: T1, carcinoembryonic antigen (CEA); test: competition RIA, unlabeled antibody against 125I-mCOL-1 on CEA; modified Scatchard
Procedure: as §1, §2

[3] = target: T1, carcinoembryonic antigen (CEA); test: competition RIA: unlabeled antibody against 125I-mCOL-1 for binding to CEA, % inhibition against amount competitor Ab (ng), log axis
Excerpt: FIGS. 4A, 4B, and 4C are a series of graphs of a competition radioimmunoassay of HuCOL-1AbrCDR framework variants using ¹²⁵I-mCOL-1. Serial dilutions of unlabeled antibodies were used to compete with the binding of ¹²⁵ImCOL-1. The data was divided into three individual graphs to facilitate viewing. FIG. 4A compares the binding of unlabeled murine COL-1 (muCOL-1), chimeric COL-1 (cCOL-1), HuCOL-1, FRV1 (HuCOL-1AbrCDR), and human IgG (HuIgG). FIG. 4B compares the binding of unlabeled murine HuCOL-1AbrCDR, FRV2, FRV3, FRV4, FRV7, and FRV10. FIG. 4C compares the binding of unlabeled murine HuCOL-1AbrCDR, FRV5, FRV6, FRV8, FRV9, FRV11, and FRV12.
as §1, §2

[4] = target: T1, carcinoembryonic antigen (CEA); test: competition RIA against 125I-mCOL-1 on CEA; modified Scatchard
Procedure: as §1, §2

[5] = target: anti-V region antibodies to COL-1 present in the serum of patient two; test: SPR competition; soluble antibody against immobilized HuCOL-1 for serum anti-V region antibodies
[6] = target: anti-V region antibodies to COL-1 present in the serum of patient one; test: as above

Row | Binder | Fold Difference [1] | Ka [2] | IC50 (read off the curve) [3] | Ka [4] | IC50 [5] | IC50 [6]
1 | murine COL-1 monoclonal antibody (antibody, V domains shown, Whole murine antibody; also called mCOL-1; muCOL-1) VH: EVQLQQSGAELVRSGASVKMSCTASGFNIKDYYMHWVKQRPEQGLEWIGWIDPENGDTEYAPKFQGKATMTTDTSSNTAYLQLSSLTSEDTAVYYCNTRGLSTMITTRWFFDVWGAGTTVAVSS VL: DIVLTQSPASLTVSLGLRATISCRASKSVSASGYSYMHWYQQRPGQPPKLLIYLASNLQSGVPARFSGSGSGTDFTLNIHPVEEEDAATYYCQHSRELPTFGGGTKLEIK | 1 fold | 2.74e+08 M⁻¹ | ~20 ng |  |  | 
2 | FRV12 (antibody, name in Kabat numbering, V domains shown, Kabat positions (see notes of FRV2 and FRV8); also called HuCOL-1AbrCDR framework variant 12) VH: QVQLVQSGAEVKKPGASVKVSCKASGYNIKDYYMHWVRQRPEQGLEWMGWIDPENGDTEYAQKFQGRVTMTTDTSTSTVYMELSSLRSEDTAVYYCNTRGLSTMITTRWFFDVWGAGTLVTVSS VL: DIVMTQSPASLAVSLGERATINCKSSQSVSASGYSYMHWYQQKPGQPPKLLIYLASNLQSGVPDRFSGSGSGTDFTLTISSLQAEDVAVYYCQHSRELPTFGGGTKVEIK | 5.6 fold | 4.9e+07 M⁻¹ |  |  |  | 
3 | HuCOL-1AbrCDR framework variant 7 (FRV7) (antibody, V domains shown, also called HuCOL-1FRV7; FR7) VH: EVQLVQSGAEVVKPGASVKVSCKASGYNIKDYYMHWVRQRPEQGLEWMGWIDPENGDTEYAQKFQGRVTMTTDTSTSTVYMELSSLRSEDTAVYYCNTRGLSTMITTRWFFDVWGAGTLVTVSS VL: DIVLTQSPASLAVSLGERATINCKSSQSVSASGYSYMHWYQQKPGQPPKLLIYLASNLQSGVPARFSGSGSGTDFTLTISSVQAEDVATYYCQHSRELPTFGGGTKLEIK | 0.9 fold | 3.07e+08 M⁻¹ |  | 3.07e+08 M⁻¹ |  | 
4 | FRV5 (antibody, name in Kabat numbering, V domains shown, Kabat positions; also called HuCOL-1AbrCDR framework variant 5) VH: EVQLVQSGAEVVKPGASVKVSCKASGFNIKDYYMHWVRQRPEQGLEWMGWIDPENGDTEYAQKFQGRATMTTDTSTSTVYMELSSLRSEDTAVYYCNTRGLSTMITTRWFFDVWGAGTLVTVSS VL: DIVMTQSPASLAVSLGERATINCKSSQSVSASGYSYMHWYQQKPGQPPKLLIYLASNLQSGVPARFSGSGSGTDFTLTISSLQAEDVATYYCQHSRELPTFGGGTKVEIK | 2.7 fold | 1.01e+08 M⁻¹ | ~30 ng |  |  | 
5 | FRV3 (antibody, name in Kabat numbering, V domains shown, Kabat positions (see note of FRV2); also called HuCOL-1AbrCDR framework variant 3) VH: EVQLVQSGAEVVKPGASVKMSCKASGFNIKDYYMHWVKQRPEQGLEWIGWIDPENGDTEYAQKFQGKATMTTDTSTSTAYLELSSLRSEDTAVYYCNTRGLSTMITTRWFFDVWGAGTLVTVSS VL: DIVMTQSPASLAVSLGERATINCKSSQSVSASGYSYMHWYQQKPGQPPKLLIYLASNLQSGVPDRFSGSGSGTDFTLTISSLQAEDVAVYYCQHSRELPTFGGGTKVEIK | 8.6 fold | 3.2e+07 M⁻¹ |  |  |  | 
6 | HuCOL-1AbrCDR framework variant 4 (FRV4) (antibody, V domains shown, also called HuCOL-1FRV4) VH: EVQLVQSGAEVVKPGASVKVSCKASGFNIKDYYMHWVRQRPEQGLEWMGWIDPENGDTEYAQKFQGRATMTTDTSTSTVYMELSSLRSEDTAVYYCNTRGLSTMITTRWFFDVWGAGTLVTVSS VL: DIVLTQSPASLAVSLGERATINCKSSQSVSASGYSYMHWYQQKPGQPPKLLIYLASNLQSGVPARFSGSGSGTDFTLTISSVQAEDVATYYCQHSRELPTFGGGTKLEIK | 1.1 fold | 2.51e+08 M⁻¹ |  | 2.51e+08 M⁻¹ |  | 
7 | HuCOL-1 (antibody, V domains shown, Whole humanized antibody; also called humanized COL-1; ATCC PTA-4661) VH: EVQLVQSGAEVVKPGASVKMSCKASGFNIKDYYMHWVKQAPGQGLEWIGWIDPENGDTEYAPKFQGKATMTTDTSTSTAYLELSSLRSEDTAVYYCNTRGLSTMITTRWFFDVWGAGTLVTVSS VL: DIVLTQSPASLAVSLGERATINCRASKSVSASGYSYMHWYQQKPGQPPKLLIYLASNLQSGVPARFSGSGSGTDFTLTISSVQAEDVATYYCQHSRELPTFGGGTKLEIK | 1 fold | 2.78e+08 M⁻¹ |  | 2.78e+08 M⁻¹ | 1.9 nM | 4.9 nM
8 | FRV6 (antibody, name in Kabat numbering, V domains shown, Kabat positions (see notes of FRV2 and FRV5); also called HuCOL-1AbrCDR framework variant 6) VH: EVQLVQSGAEVVKPGASVKVSCKASGFNIKDYYMHWVRQRPEQGLEWMGWIDPENGDTEYAQKFQGRATMTTDTSTSTVYMELSSLRSEDTAVYYCNTRGLSTMITTRWFFDVWGAGTLVTVSS VL: DIVMTQSPASLAVSLGERATINCKSSQSVSASGYSYMHWYQQKPGQPPKLLIYLASNLQSGVPDRFSGSGSGTDFTLTISSLQAEDVAVYYCQHSRELPTFGGGTKVEIK | 2.8 fold | 1e+08 M⁻¹ |  |  |  | 

Next, values leading:

Row | Fold Difference [1] | Ka [2] | IC50 (read off the curve) [3] | Ka [4] | IC50 [5] | IC50 [6] | Binder
9 | 1.4 fold | 1.99e+08 M⁻¹ | ~30 ng |  |  |  | chimeric COL-1 (antibody, V domains shown) VH: EVQLQQSGAELVRSGASVKMSCTASGFNIKDYYMHWVKQRPEQGLEWIGWIDPENGDTEYAPKFQGKATMTTDTSSNTAYLQLSSLTSEDTAVYYCNTRGLSTMITTRWFFDVWGAGTTVAVSS VL: DIVLTQSPASLTVSLGLRATISCRASKSVSASGYSYMHWYQQRPGQPPKLLIYLASNLQSGVPARFSGSGSGTDFTLNIHPVEEEDAATYYCQHSRELPTFGGGTKLEIK
10 | 9.5 fold | 2.9e+07 M⁻¹ |  |  |  |  | FRV2 (antibody, name in Kabat numbering, V domains shown, also called HuCOL-1AbrCDR framework variant 2) VH: EVQLVQSGAEVVKPGASVKMSCKASGFNIKDYYMHWVKQRPEQGLEWIGWIDPENGDTEYAQKFQGKATMTTDTSTSTAYLELSSLRSEDTAVYYCNTRGLSTMITTRWFFDVWGAGTLVTVSS VL: DIVMTQSPASLAVSLGERATINCKSSQSVSASGYSYMHWYQQKPGQPPKLLIYLASNLQSGVPARFSGSGSGTDFTLTISSLQAEDVATYYCQHSRELPTFGGGTKVEIK
11 | 4.5 fold | 6.1e+07 M⁻¹ |  |  |  |  | FRV11 (antibody, name in Kabat numbering, V domains shown, Kabat positions (see notes of FRV2 and FRV8); also called HuCOL-1AbrCDR framework variant 11) VH: QVQLVQSGAEVKKPGASVKVSCKASGYNIKDYYMHWVRQRPEQGLEWMGWIDPENGDTEYAQKFQGRVTMTTDTSTSTVYMELSSLRSEDTAVYYCNTRGLSTMITTRWFFDVWGAGTLVTVSS VL: DIVMTQSPASLAVSLGERATINCKSSQSVSASGYSYMHWYQQKPGQPPKLLIYLASNLQSGVPARFSGSGSGTDFTLTISSLQAEDVATYYCQHSRELPTFGGGTKVEIK
12 | 4.5 fold | 6.1e+07 M⁻¹ |  |  |  |  | FRV9 (antibody, name in Kabat numbering, V domains shown, Kabat positions (see notes of FRV2 and FRV8); also called HuCOL-1AbrCDR framework variant 9) VH: EVQLVQSGAEVVKPGASVKVSCKASGYNIKDYYMHWVRQRPEQGLEWMGWIDPENGDTEYAQKFQGRVTMTTDTSTSTVYMELSSLRSEDTAVYYCNTRGLSTMITTRWFFDVWGAGTLVTVSS VL: DIVMTQSPASLAVSLGERATINCKSSQSVSASGYSYMHWYQQKPGQPPKLLIYLASNLQSGVPDRFSGSGSGTDFTLTISSLQAEDVAVYYCQHSRELPTFGGGTKVEIK
13 | 3.6 fold | 7.7e+07 M⁻¹ |  |  |  |  | FRV8 (antibody, name in Kabat numbering, V domains shown, Kabat positions; also called HuCOL-1AbrCDR framework variant 8) VH: EVQLVQSGAEVVKPGASVKVSCKASGYNIKDYYMHWVRQRPEQGLEWMGWIDPENGDTEYAQKFQGRVTMTTDTSTSTVYMELSSLRSEDTAVYYCNTRGLSTMITTRWFFDVWGAGTLVTVSS VL: DIVMTQSPASLAVSLGERATINCKSSQSVSASGYSYMHWYQQKPGQPPKLLIYLASNLQSGVPARFSGSGSGTDFTLTISSLQAEDVATYYCQHSRELPTFGGGTKVEIK
